Laboratory results reported in patent publication US20060002929A1.

Experiments:
Human Fc-OX40L (human) [1] = molecular target: Human Fc-OX40L (human) (UniProt P23510); assay: cell-based or functional assay
Human Fc-OX40L (human) [2] = molecular target: Human Fc-OX40L (human) (UniProt P23510); assay: BIAcore, immobilized hFc-OX40L

Sequence of Human Fc-OX40L (human) (P23510 51-183 limits assumed): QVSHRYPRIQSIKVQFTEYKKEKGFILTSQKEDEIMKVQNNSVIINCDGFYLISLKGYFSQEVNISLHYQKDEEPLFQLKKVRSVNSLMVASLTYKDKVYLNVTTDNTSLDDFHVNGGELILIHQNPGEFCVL

Costimulation Value (IC50), T cell proliferation (3H-thymidine) (Human Fc-OX40L (human) [1]): 3.2
IL-2 Inhibition (IC50 [nM]) (Human Fc-OX40L (human) [1]): 0.22 nM
EC50 (Human Fc-OX40L (human) [2]): 0.4 nM
B1: Ab G (antibody, part only; not given: light chain, part only)
heavy: MEFGLSWIFLAAILKGVQCEVQLVESGGGLVKPGGSLRLSCAASGFTFSNAWMSWVRQAPGKGLEWIGRIKSKTEGGTTDYGAPVKGRFTISRDDSKNTLYLQMNSLKTEDTAVYSCTTDFLWFGEFPFDYWGQGTLVTVSSASTKGPSVFPLAPCSRSTSESTAALGCLVKDYFPEPVTVSWNSGALTSGVHTFPAVLQSSGLYSLSSVVTVPSSNFGTQTYTCNVDHKPSNTKVDKTVERKCCVECPPCPAPPVAGPSVFLFPPKPKDTLMISRTPEVTCVVVDVSHEDPEVQFNWYVDGVEVHNAKTKPREEQFNSTFRVVSVLTVVHQDWLNGKEYKCKVSNKGLPAPIEKTISKTKGQPREPQVYTLPPSREEMTKNQVSLTCLVKGFYPSDIAVEWESNGQPENNYKTTPPMLDSDGSFFLYSKLTVDKSRWQQGNVFSCSVMHEALHNHYTQKSLSLSPGK
